From publication PMC5564421
Read-outs that look alike come from different tables or passages of the source.

How the values were obtained:
[1] = target: WT* iso-1-Cytc (K72A variant of yeast iso-1-cytochrome c, with C102S) (yeast); assay: SEC
[2] = target: WT* iso-1-Cytc (K72A variant of yeast iso-1-cytochrome c, with C102S) (yeast); assay: crystal structure
[3] = target: WT* iso-1-Cytc (K72A variant of yeast iso-1-cytochrome c, with C102S) (yeast); assay: SEC; remark: listed apart in the source
[4] = target: WT* iso-1-Cytc (K72A variant of yeast iso-1-cytochrome c, with C102S) (yeast); assay: SEC; remark: listed apart in the source
[5] = target: WT* iso-1-Cytc (K72A variant of yeast iso-1-cytochrome c, with C102S) (yeast); assay: SEC; remark: listed apart in the source
[6] = target: WT* iso-1-Cytc (K72A variant of yeast iso-1-cytochrome c, with C102S) (yeast); assay: SEC; remark: listed apart in the source
[7] = target: Cytc from equine heart (equine) (UniProt P00004); assay: SEC
[8] = target: Cytc from equine heart (equine) (UniProt P00004); assay: SEC; remark: listed apart in the source

Chain of Cytc from equine heart, P00004 1-105 (natural protein; other documents disagree on this pair) (P00004 whole entry): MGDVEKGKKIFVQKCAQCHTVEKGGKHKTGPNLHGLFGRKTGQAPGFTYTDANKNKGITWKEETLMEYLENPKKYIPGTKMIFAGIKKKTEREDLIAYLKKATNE

| koff [1] [s⁻¹] | stoichiometry N [2] | koff [3] [s⁻¹] | koff [4] [s⁻¹] | koff [5] [s⁻¹] | koff [6] [s⁻¹] | koff [7] [s⁻¹] | koff [8] [s⁻¹] | lifetime of the dimer [8] [days] | Substance |
| --- | --- | --- | --- | --- | --- | --- | --- | --- | --- |
| 0.0034 | 2 | 6.5e-06 | 1.6e-05 | 6.1e-05 | 0.00055 | – | – | – | WT* iso-1-Cytc (K72A variant of yeast iso-1-cytochrome c, with C102S) (natural protein) |
| – | – | – | – | – | – | 1.6e-06 | 1.5e-05 | 7.4 | Cytc from equine heart, P00004 1-105 (natural protein; other documents disagree on this pair) |
